This is an account of results in US20210061893A1.

For test [1], the target named is phoenixin binding sites on rat pituitary adenoma cells, RC-4B/C (rat). The test can be described thus: displacement of 50 pM 125I-Y0-Phoenixin-20 amide from RC-4B/C cells, gamma counting.
Test [2] deals with antibodies raised to …-NH2 (SEQ. ID NO: 7). The test can be described thus: RIA or EIA, competitive immunoassay with antibodies raised to SEQ ID NO: 7; standard peptide not named.

Where no end group is shown, it is not given here.

For orientation: IC50 means the concentration that gives 50% inhibition. High values mean weaker potency in that assay, low ones greater potency in that assay. By EC50 is commonly meant the concentration at which the effect is half-maximal.

B1: phoenixin-14 amide, …-NH2 (peptide)
peptide: DVQPPGLKVWSDPF-NH2
With B1, the IC50 in test [1] stood at 17.9 nM.

B2: Phoenixin-20 amide, …-NH2 (peptide)
peptide: AGIVQEDVQPPGLKVWSDPF-NH2
Molecule B2 showed an IC50 in test [1] of 21.5 nM. The molecule also displayed an EC50 in test [2] of 0.2 ng/mL.
